Data published in patent US6949349.
Positions of bridges follow the written chain, without caps; N, C: chain ends. No end group written: not given here.

Experiments:
IGFBP-1 [1] = molecular target: T1, IGFBP-1 (human, UniProt P08833 26-259); assay: ELISA plate assay (starred peptide): peptide inhibits IGFBP-1 binding to IGF-I; ratio against bp1-14
T1 construct: Biotinylated in the ELISA assays; also called rhIGFBP-1
T1 sequence (looked up): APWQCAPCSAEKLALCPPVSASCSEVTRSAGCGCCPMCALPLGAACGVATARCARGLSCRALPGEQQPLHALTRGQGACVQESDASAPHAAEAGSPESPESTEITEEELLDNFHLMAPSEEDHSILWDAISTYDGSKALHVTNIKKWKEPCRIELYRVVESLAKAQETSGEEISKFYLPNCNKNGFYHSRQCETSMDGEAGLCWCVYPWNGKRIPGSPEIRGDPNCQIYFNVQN

IGFBP-1 [2] = molecular target: T1, IGFBP-1; assay: ELISA plate assay (starred peptide): peptide inhibits IGFBP-1 binding to IGF-I; ratio against bp1-16
IGFBP-1 [3] = molecular target: T1, IGFBP-1; assay: ELISA competition: peptide inhibits IGFBP-1 binding to IGF-I; the reference itself
IGFBP-1 [4] = molecular target: T1, IGFBP-1; assay: ELISA plate assay: peptide inhibits IGFBP-1 binding to IGF-I; the reference itself
IGFBP-1 [5] = molecular target: T1, IGFBP-1; assay: BIAcore competition: peptide inhibits IGFBP-1 binding to IGF-I; the reference itself
IGFBP-1 [6] = molecular target: T1, IGFBP-1; assay: BIAcore competition: peptide inhibits IGFBP-1 binding to IGF-II; the reference itself
IGFBP-1 [7] = molecular target: T1, IGFBP-1; assay: BIAcore competition: peptide inhibits IGFBP-1 binding to IGF-I; position 3 is Ala in the wt
IGFBP-1 [8] = molecular target: T1, IGFBP-1; assay: biotinylated-IGFBP-1 ELISA: peptide inhibits IGFBP-1 binding to IGF-I; the reference itself
Source text: The peptide/IGFBP mix was then removed and the plate was washed ten times with PBS buffer containing 0.05% TWEEN-20™ surfactant.

IGFBP-1 [9] = molecular target: T1, IGFBP-1; assay: BIAcore competition: peptide inhibits IGFBP-1 binding to IGF-II; position 3 is Ala in the wt
[10] = molecular target: T2, recombinant human IGFBP-3 (human, UniProt P17936 28-291); assay: BIAcore competition: peptide dilutions with 20 nM IGFBP-3 over immobilized IGF-II
T2 construct: also called rhIGFBP-3
T2 sequence (P17936 28-291 limits assumed): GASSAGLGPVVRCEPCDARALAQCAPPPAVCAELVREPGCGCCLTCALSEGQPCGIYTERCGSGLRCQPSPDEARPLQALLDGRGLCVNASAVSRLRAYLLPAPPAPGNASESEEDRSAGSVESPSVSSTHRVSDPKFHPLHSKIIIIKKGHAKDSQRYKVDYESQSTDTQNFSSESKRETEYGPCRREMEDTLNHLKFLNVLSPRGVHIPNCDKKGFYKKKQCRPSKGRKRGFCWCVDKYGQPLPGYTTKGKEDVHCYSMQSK
Procedure: IGF-II was immobilized on a dextran chip for inhibition assays using a BIAcore™ 2000 surface-plasmon-resonance device (BIAcore, Inc., Piscataway, N.J.) to measure free binding protein. IGF-II was biotinylated as described above, and injected over a chip to which streptavidin had been coupled (BIAcore, Inc.) to give approximately 1500 RU of immobilized IGF-II. […] After incubation for ≧1 hour at room temperature, an aliquot of 20 µl was injected at a flow rate of 20 µl/min over the IGF-II chip.

IGFBP-3 = molecular target: T3, IGFBP-3 (human, UniProt P17936 28-291); assay: BIAcore competition: peptide inhibits IGFBP-3 binding to IGF-I; the reference itself
T3 construct: also called rhIGFBP-3
T3 sequence (P17936 28-291 limits assumed): as above

IGFBP-1 [11] = molecular target: T1, IGFBP-1; assay: BIAcore competition: peptide inhibits IGFBP-1 binding to IGF-I; ratio against bp1-14
IGFBP-1 [12] = molecular target: T1, IGFBP-1; assay: BIAcore competition: peptide inhibits IGFBP-1 binding to IGF-I; the reference bp1-16 itself

SEMVCRAGPLQWLCEIYF-NH2 (disulfide 5-14 (inferred), g3 bp1-01 selectant) [bp1-19]
IC50 (114)/IC50 (mut) (IGFBP-1 [1]): 2.1 ratio
IC50 (116)/IC50 (mut) (IGFBP-1 [2]): 9.9 ratio

B1: bp1-01 (peptide)
peptide: CRAGPLQWLCEKYFG-NH2
modifications: disulfide 1-10; N-terminus assumed
SMILES: CC(C)C[C@@H]1NC(=O)[C@H](Cc2c[nH]c3ccccc23)NC(=O)[C@H](CCC(N)=O)NC(=O)[C@H](CC(C)C)NC(=O)[C@@H]2CCCN2C(=O)CNC(=O)[C@H](C)NC(=O)[C@H](CCCNC(=N)N)NC(=O)[C@@H](N)CSSC[C@@H](C(=O)N[C@@H](CCC(=O)O)C(=O)N[C@@H](CCCCN)C(=O)N[C@@H](Cc2ccc(O)cc2)C(=O)N[C@@H](Cc2ccccc2)C(=O)NCC(N)=O)NC1=O
notes: Synthetic 15-mer; also called (wt); A3
IC50 (mut)/IC50 (wt) (IGFBP-1 [3]): 1 ratio
IC50 (mut)/IC50 (wt) (IGFBP-1 [4]): 1 ratio
IC50 (mut)/IC50 (wt) (IGFBP-1 [5]): 1 ratio
IC50 (mut)/IC50 (wt) (IGFBP-1 [6]): 1 ratio
IC50 (mut)/IC50 (wt) (IGFBP-1 [7]): 1 ratio
IC50 (mut)/IC50 (wt) (IGFBP-1 [8]): 1 ratio
IC50 (mut)/IC50 (wt) (IGFBP-1 [9]): 1 ratio

B2: BP3-4D3.11 (peptide)
peptide: VAWEVCWDRHDQGYICTTDS
modifications: disulfide 6-16
notes: Synthetic peptide corresponding to phage clone 4D3.11 (g8) and 3Bi.1 (g3); also called BP14; BP3-4D3.11 (BP14)
IC50 [10]: 1000 nM

SEEVCWPVAEWYLCNMWG (disulfide 5-14) [bp3-01-ox]
IC50 (mut)/IC50 (wt) (IGFBP-3): 1 ratio

CRAGPLQWLCEKYF-NH2 (disulfide 1-10 (inferred), bp1-01 lacking the C-terminal Gly) [bp1-16]
IC50 (114)/IC50 (mut) (IGFBP-1 [11]): 0.21 ratio
IC50 (116)/IC50 (mut) (IGFBP-1 [12]): 1 ratio
